± gives the standard deviation of the averaged measurements.
Tested on: ATP
Assay: switch fluorescence ratio, 500 uM ATP over buffer (Cy3 cluster intensity, sum of 5 cycles each) (fold (ratio)); higher = stronger signal-on switching upon ATP binding; sequences stand for … in TCGTCGGCAGCGTCAGATGTGTATAAGAGACAGTTTTTTTTTTTTTTTTTTTTTTTTT…TC
Conditions: aptamer strand: ATP DNA aptamer (quencher-CACCTGGGGGAGTATTGCGGAGGAAGG + anchor), 100 nM annealed; ATP concentration: 500 uM
How it was run: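 Clusters with intensities outside 100-1000 RFU were excluded. The remaining Cy3-labelled switching-strand clusters on a modified Illumina MiSeq flow-cell had been annealed to 100 nM quencher-labelled ATP aptamer and imaged in selection buffer, then after 15 min with 500 uM ATP at 22 °C, for five cycles separated by NaOH stripping and re-annealing. The fluorescence ratio, averaged per switch-domain sequence, is each cluster's summed target-cycle Cy3 intensity over its summed buffer-cycle Cy3 intensity.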
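Note: ATP exposure 15 min at 22 °C before imaging.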

**Q.** Which switch fluorescence ratio does the source give for GGGGCGTTAG here?
**A.** 1.002 ± 0.0065

**Q.** Which switch fluorescence ratio does the source give for GGGGCTAGCG here?
**A.** 0.99 ± 0.02

**Q.** For GGGGCTCAGA, which switch fluorescence ratio is on record?
**A.** 0.993 ± 0.011

**Q.** With GGGGCTCTGT as the sequence, how does the switch fluorescence ratio read?
**A.** 1 ± 0.012

**Q.** Which switch fluorescence ratio does the source give for GGGGCTTAGT here?
**A.** 1.03 ± 0.017

**Q.** With GGGGCTTATC as the sequence, how does the switch fluorescence ratio read?
**A.** 1.03 ± 0.043

**Q.** How did the switch fluorescence ratio turn out when GGGGGAACCG was run?
**A.** 0.994 ± 0.08

**Q.** How did the switch fluorescence ratio turn out when GGGGGAACGC was run?
**A.** 0.998 ± 0.054

**Q.** For GGGGGAAGAG, which switch fluorescence ratio is on record?
**A.** 1.01 ± 0.021

**Q.** With GGGGGAAGGA as the sequence, how does the switch fluorescence ratio read?
**A.** 0.995 ± 0.036

**Q.** For GGGGGAATA, which switch fluorescence ratio is on record?
**A.** 0.993 ± 0.051

**Q.** How did the switch fluorescence ratio turn out when GGGGGAATGC was run?
**A.** 1.07 ± 0.11

**Q.** GGGGGACTGG was tested. Which switch fluorescence ratio did it give?
**A.** 0.981 ± 0.019

**Q.** With GGGGGACTTA as the sequence, how does the switch fluorescence ratio read?
**A.** 0.998 ± 0.043

**Q.** Which switch fluorescence ratio does the source give for GGGGGAGCCC here?
**A.** 0.9896 ± 0.0091

**Q.** GGGGGAGGGA was tested. Which switch fluorescence ratio did it give?
**A.** 0.997 ± 0.04

**Q.** GGGGGAGTAA was tested. Which switch fluorescence ratio did it give?
**A.** 1.05 ± 0.15

**Q.** For GGGGGAGTCA, which switch fluorescence ratio is on record?
**A.** 1 ± 0.056

**Q.** With GGGGGAGTCG as the sequence, how does the switch fluorescence ratio read?
**A.** 1.02 ± 0.048

**Q.** With GGGGGATATC as the sequence, how does the switch fluorescence ratio read?
**A.** 0.994 ± 0.06

**Q.** GGGGGATATG was tested. Which switch fluorescence ratio did it give?
**A.** 0.984 ± 0.027

**Q.** For GGGGGATGAT, which switch fluorescence ratio is on record?
**A.** 0.9889 ± 0.007

**Q.** For GGGGGATGGG, which switch fluorescence ratio is on record?
**A.** 0.998 ± 0.032

**Q.** For GGGGGCAATC, which switch fluorescence ratio is on record?
**A.** 2.84 ± 0.54

**Q.** For GGGGGCACGG, which switch fluorescence ratio is on record?
**A.** 1.01 ± 0.012

**Q.** With GGGGGCACTT as the sequence, how does the switch fluorescence ratio read?
**A.** 1.008 ± 0.0045

**Q.** For GGGGGCCCCG, which switch fluorescence ratio is on record?
**A.** 1 ± 0.013

**Q.** Which switch fluorescence ratio does the source give for GGGGGCCGGA here?
**A.** 1.01 ± 0.048

**Q.** How did the switch fluorescence ratio turn out when GGGGGCCGGC was run?
**A.** 1.028 ± 0.0031

**Q.** How did the switch fluorescence ratio turn out when GGGGGCCTAA was run?
**A.** 1 ± 0.028

**Q.** Which switch fluorescence ratio does the source give for GGGGGCCTGG here?
**A.** 0.979 ± 0.019

**Q.** With GGGGGCGCCG as the sequence, how does the switch fluorescence ratio read?
**A.** 1.01 ± 0.097

**Q.** GGGGGCGCGT was tested. Which switch fluorescence ratio did it give?
**A.** 1.02 ± 0.038

**Q.** Which switch fluorescence ratio does the source give for GGGGGCGGGA here?
**A.** 1.02 ± 0.059

**Q.** Which switch fluorescence ratio does the source give for GGGGGCGGTA here?
**A.** 1.02 ± 0.059

**Q.** For GGGGGCGTAC, which switch fluorescence ratio is on record?
**A.** 1.06 ± 0.083

**Q.** GGGGGCGTAT was tested. Which switch fluorescence ratio did it give?
**A.** 1.051 ± 0.0072

**Q.** How did the switch fluorescence ratio turn out when GGGGGCGTTT was run?
**A.** 1.01 ± 0.045

**Q.** How did the switch fluorescence ratio turn out when GGGGGCTTCG was run?
**A.** 0.992 ± 0.048

**Q.** Which switch fluorescence ratio does the source give for GGGGGCTTTT here?
**A.** 1.01 ± 0.034

**Q.** How did the switch fluorescence ratio turn out when GGGGGGAACT was run?
**A.** 0.987 ± 0.022

**Q.** With GGGGGGAATG as the sequence, how does the switch fluorescence ratio read?
**A.** 1 ± 0.03

**Q.** For GGGGGGAGCA, which switch fluorescence ratio is on record?
**A.** 0.992 ± 0.018

**Q.** Which switch fluorescence ratio does the source give for GGGGGGAGGT here?
**A.** 1.02 ± 0.065

**Q.** How did the switch fluorescence ratio turn out when GGGGGGATCC was run?
**A.** 0.996 ± 0.044

**Q.** GGGGGGATTA was tested. Which switch fluorescence ratio did it give?
**A.** 0.992 ± 0.035

**Q.** With GGGGGGCAGT as the sequence, how does the switch fluorescence ratio read?
**A.** 1 ± 0.023

**Q.** GGGGGGCATG was tested. Which switch fluorescence ratio did it give?
**A.** 0.992 ± 0.035

**Q.** With GGGGGGCCAG as the sequence, how does the switch fluorescence ratio read?
**A.** 1.01 ± 0.04

**Q.** Which switch fluorescence ratio does the source give for GGGGGGCCCT here?
**A.** 0.996 ± 0.028

**Q.** How did the switch fluorescence ratio turn out when GGGGGGCCTG was run?
**A.** 0.982 ± 0.038

**Q.** Which switch fluorescence ratio does the source give for GGGGGGCTGC here?
**A.** 0.978 ± 0.036

**Q.** With GGGGGGGAAG as the sequence, how does the switch fluorescence ratio read?
**A.** 1.01 ± 0.087

**Q.** Which switch fluorescence ratio does the source give for GGGGGGGACA here?
**A.** 0.984 ± 0.031

**Q.** Which switch fluorescence ratio does the source give for GGGGGGGACC here?
**A.** 0.999 ± 0.017

**Q.** Which switch fluorescence ratio does the source give for GGGGGGGAGG here?
**A.** 0.993 ± 0.029

**Q.** Which switch fluorescence ratio does the source give for GGGGGGGAGT here?
**A.** 0.995 ± 0.02

**Q.** Which switch fluorescence ratio does the source give for GGGGGGGCAG here?
**A.** 0.986 ± 0.017

**Q.** For GGGGGGGCTA, which switch fluorescence ratio is on record?
**A.** 0.9868 ± 0.0035

**Q.** Which switch fluorescence ratio does the source give for GGGGGGGCTG here?
**A.** 1.06 ± 0.4

**Q.** For GGGGGGGGA, which switch fluorescence ratio is on record?
**A.** 1.05 ± 0.026

**Q.** For GGGGGGGGTC, which switch fluorescence ratio is on record?
**A.** 0.989 ± 0.034

**Q.** For GGGGGGTACG, which switch fluorescence ratio is on record?
**A.** 1 ± 0.05

**Q.** How did the switch fluorescence ratio turn out when GGGGGGTCAA was run?
**A.** 0.967 ± 0.033

**Q.** GGGGGGTGCG was tested. Which switch fluorescence ratio did it give?
**A.** 0.999 ± 0.019

**Q.** Which switch fluorescence ratio does the source give for GGGGGGTTGC here?
**A.** 0.967 ± 0.035

**Q.** How did the switch fluorescence ratio turn out when GGGGGTAGCT was run?
**A.** 1 ± 0.017

**Q.** How did the switch fluorescence ratio turn out when GGGGGTATAG was run?
**A.** 1.02 ± 0.022

**Q.** With GGGGGTATTT as the sequence, how does the switch fluorescence ratio read?
**A.** 1 ± 0.018

**Q.** Which switch fluorescence ratio does the source give for GGGGGTCACG here?
**A.** 0.978 ± 0.028

**Q.** Which switch fluorescence ratio does the source give for GGGGGTCCAT here?
**A.** 0.954 ± 0.031

**Q.** Which switch fluorescence ratio does the source give for GGGGGTCCGA here?
**A.** 0.9855 ± 0.0042

**Q.** For GGGGGTCCTA, which switch fluorescence ratio is on record?
**A.** 0.977 ± 0.0099

**Q.** For GGGGGTCTTT, which switch fluorescence ratio is on record?
**A.** 0.99 ± 0.023

**Q.** How did the switch fluorescence ratio turn out when GGGGGTGAAC was run?
**A.** 0.98 ± 0.029

**Q.** For GGGGGTGACA, which switch fluorescence ratio is on record?
**A.** 0.9931 ± 0.0073

**Q.** With GGGGGTGCAT as the sequence, how does the switch fluorescence ratio read?
**A.** 0.9638 ± 0.0088

**Q.** GGGGGTGGAT was tested. Which switch fluorescence ratio did it give?
**A.** 1 ± 0.025

**Q.** Which switch fluorescence ratio does the source give for GGGGGTGGCA here?
**A.** 0.998 ± 0.042

**Q.** GGGGGTGGCG was tested. Which switch fluorescence ratio did it give?
**A.** 0.973 ± 0.021

**Q.** Which switch fluorescence ratio does the source give for GGGGGTGGGG here?
**A.** 1.01 ± 0.037

**Q.** Which switch fluorescence ratio does the source give for GGGGGTGGTG here?
**A.** 0.988 ± 0.038

**Q.** For GGGGGTGTAA, which switch fluorescence ratio is on record?
**A.** 0.986 ± 0.018

**Q.** GGGGGTTAAG was tested. Which switch fluorescence ratio did it give?
**A.** 0.988 ± 0.029

**Q.** For GGGGGTTAAT, which switch fluorescence ratio is on record?
**A.** 1.013 ± 0.0037

**Q.** With GGGGGTTGCG as the sequence, how does the switch fluorescence ratio read?
**A.** 0.979 ± 0.015

**Q.** With GGGGTAAAAC as the sequence, how does the switch fluorescence ratio read?
**A.** 1.02 ± 0.023

**Q.** With GGGGTAAGAA as the sequence, how does the switch fluorescence ratio read?
**A.** 0.981 ± 0.034

**Q.** GGGGTAATTT was tested. Which switch fluorescence ratio did it give?
**A.** 1.02 ± 0.035

**Q.** GGGGTACAAT was tested. Which switch fluorescence ratio did it give?
**A.** 1.07 ± 0.041

**Q.** With GGGGTACCAC as the sequence, how does the switch fluorescence ratio read?
**A.** 1.31 ± 0.4

**Q.** GGGGTACGCG was tested. Which switch fluorescence ratio did it give?
**A.** 0.984 ± 0.024

**Q.** For GGGGTAGAAG, which switch fluorescence ratio is on record?
**A.** 1.004 ± 0.0016

**Q.** For GGGGTAGACT, which switch fluorescence ratio is on record?
**A.** 0.995 ± 0.018

**Q.** How did the switch fluorescence ratio turn out when GGGGTAGATG was run?
**A.** 0.9985 ± 0.0033

**Q.** Which switch fluorescence ratio does the source give for GGGGTAGCGA here?
**A.** 0.992 ± 0.051

**Q.** For GGGGTAGGAC, which switch fluorescence ratio is on record?
**A.** 1.01 ± 0.017

**Q.** For GGGGTAGGGA, which switch fluorescence ratio is on record?
**A.** 1 ± 0.019

**Q.** Which switch fluorescence ratio does the source give for GGGGTAGGGC here?
**A.** 1.04 ± 0.057

**Q.** Which switch fluorescence ratio does the source give for GGGGTAGGTT here?
**A.** 1.02 ± 0.053
